Test results taken from patent US20050186180A1.

Target: murine B7-2 (recombinant, expressed from rV-B7-2 in BSC-1 cells) (murine) (UniProt P42082)
Assay: flow cytometry, BSC-1 cells infected with rV-B7-2 (10 MOI), FITC-conjugated antibody

Sequence of UniProt P42082 (P42082 24-309): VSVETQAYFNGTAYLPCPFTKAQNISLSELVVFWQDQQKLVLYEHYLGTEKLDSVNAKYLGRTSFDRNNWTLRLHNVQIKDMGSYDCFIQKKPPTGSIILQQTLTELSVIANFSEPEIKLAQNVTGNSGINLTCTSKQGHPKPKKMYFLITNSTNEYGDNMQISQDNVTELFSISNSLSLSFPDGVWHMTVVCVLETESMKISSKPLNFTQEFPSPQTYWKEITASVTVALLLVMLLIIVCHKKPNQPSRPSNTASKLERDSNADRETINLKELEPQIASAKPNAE

**Q.** For “Rat-anti-mouse B7-2 (GL-1) monoclonal antibody (Pharmingen)”, which mean fluorescence is on record?
**A.** The mean fluorescence was 1800.

**Q.** What about the percent of cells positive of the same substance?
**A.** The percent of cells positive was 98.8%.
